This note sets out measurements from US20240011017A1 (Genentech, published 2024).

The labels stand for the following.
T1: HHV8 protein KCP expressed on cells (gD-GPI construct or full-length protein) (Human herpesvirus 8, UniProt Q2HRD4 20-522)
T1 construct: also called HHV8 KCP
T1 sequence: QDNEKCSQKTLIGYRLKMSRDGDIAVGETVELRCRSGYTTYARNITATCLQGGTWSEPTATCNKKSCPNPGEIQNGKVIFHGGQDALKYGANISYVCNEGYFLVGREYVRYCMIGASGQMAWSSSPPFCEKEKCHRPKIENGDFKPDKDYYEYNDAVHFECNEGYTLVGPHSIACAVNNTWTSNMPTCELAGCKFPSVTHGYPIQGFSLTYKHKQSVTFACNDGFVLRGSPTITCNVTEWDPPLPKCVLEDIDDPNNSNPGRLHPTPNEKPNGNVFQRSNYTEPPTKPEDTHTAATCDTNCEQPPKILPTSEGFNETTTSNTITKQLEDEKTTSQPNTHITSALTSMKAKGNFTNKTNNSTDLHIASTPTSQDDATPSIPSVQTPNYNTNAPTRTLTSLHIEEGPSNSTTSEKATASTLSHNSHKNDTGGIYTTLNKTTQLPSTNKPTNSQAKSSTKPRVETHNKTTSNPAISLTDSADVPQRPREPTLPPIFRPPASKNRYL

T2: MUSK expressed on cells (gD-GPI construct or full-length protein) (human, UniProt O15146 24-869)
T2 construct: whole, on cells
T2 sequence: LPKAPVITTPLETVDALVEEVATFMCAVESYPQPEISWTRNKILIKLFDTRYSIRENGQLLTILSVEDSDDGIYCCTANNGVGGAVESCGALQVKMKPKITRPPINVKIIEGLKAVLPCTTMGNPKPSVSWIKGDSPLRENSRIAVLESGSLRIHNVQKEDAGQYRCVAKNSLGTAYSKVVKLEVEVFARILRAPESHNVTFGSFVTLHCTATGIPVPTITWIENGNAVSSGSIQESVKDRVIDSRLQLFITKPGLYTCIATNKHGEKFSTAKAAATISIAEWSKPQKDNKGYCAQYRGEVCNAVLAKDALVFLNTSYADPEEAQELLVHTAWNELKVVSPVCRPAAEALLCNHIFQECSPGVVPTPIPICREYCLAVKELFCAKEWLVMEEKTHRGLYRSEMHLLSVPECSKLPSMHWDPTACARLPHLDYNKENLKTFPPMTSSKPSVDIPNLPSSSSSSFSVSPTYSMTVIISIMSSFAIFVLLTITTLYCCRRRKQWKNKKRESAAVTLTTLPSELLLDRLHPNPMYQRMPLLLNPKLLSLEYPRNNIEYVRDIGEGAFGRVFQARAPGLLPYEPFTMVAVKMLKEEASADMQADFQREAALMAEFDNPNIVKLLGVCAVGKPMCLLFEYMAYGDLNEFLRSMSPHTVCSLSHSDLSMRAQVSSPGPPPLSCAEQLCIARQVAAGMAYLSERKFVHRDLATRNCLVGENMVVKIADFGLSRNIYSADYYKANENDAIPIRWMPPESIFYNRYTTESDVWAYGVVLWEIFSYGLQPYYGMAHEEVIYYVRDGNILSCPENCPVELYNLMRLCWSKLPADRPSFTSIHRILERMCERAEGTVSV

T3: VZV protein gC, soluble (captured on beads or assayed directly in supernatants) (Varicella zoster virus, UniProt P09256 54-559)
T3 construct: also called VZV gC
T3 sequence: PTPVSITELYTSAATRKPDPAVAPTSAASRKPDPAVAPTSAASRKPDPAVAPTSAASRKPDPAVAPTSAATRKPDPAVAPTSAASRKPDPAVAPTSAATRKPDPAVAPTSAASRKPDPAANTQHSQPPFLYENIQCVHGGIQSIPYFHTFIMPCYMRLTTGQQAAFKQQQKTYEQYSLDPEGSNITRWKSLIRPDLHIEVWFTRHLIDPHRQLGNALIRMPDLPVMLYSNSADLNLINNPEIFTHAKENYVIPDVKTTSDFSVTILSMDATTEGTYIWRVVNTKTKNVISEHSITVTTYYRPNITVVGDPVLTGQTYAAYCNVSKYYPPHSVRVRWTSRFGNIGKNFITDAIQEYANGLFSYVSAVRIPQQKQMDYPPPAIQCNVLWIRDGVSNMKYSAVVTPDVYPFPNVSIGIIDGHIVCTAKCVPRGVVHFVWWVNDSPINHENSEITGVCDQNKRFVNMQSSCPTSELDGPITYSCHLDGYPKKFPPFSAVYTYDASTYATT

B1: LILRB1 (in supernatants) (receptor)
chain: GHLPKPTLWAEPGSVITQGSPVTLRCQGGQETQEYRLYREKKTALWITRIPQELVKKGQFPIPSITWEHAGRYRCYYGSDTAGRSESSDPLELVVTGAYIKPTLSAQPSPVVNSGGNVILQCDSQVAFDGFSLCKEGEDEHPQCLNSQPHARGSSRAIFSVGPVSPSRRWWYRCYAYDSNSPYEWSLPSDLLELLVLGVSKKPSLSVQPGPIVAPEETLTLQCGSDAGYNRFVLYKDGERDFLQLAGAQPQAGLSQANFTLGPVSRSYGGQYRCYGAHNLSSEWSAPSDPLDILIAGQFYDRVSLSVQPGPTVASGENVTLLCQSQGWMQTFLLTKEGAADDPWRLRSTYQSQKYQAEFPMGPVTSAHAGTYRCYGSQSSKPYLLTHPSDPLELVVSGPSGGPSSPTTGPTSTSGPEDQPLTPTGSDPQSGLGRHLGV
B2: VZV protein gB, soluble (captured on beads or assayed directly in supernatants) (other)
chain: VSPSSFYESLQVEPTQSEDITRSAHLGDGDEIREAIHKSQDAETKPTFYVCPPPTGSTIVRLEPTRTCPDYHLGKNFTEGIAVVYKENIAAYKFKATVYYKDVIVSTAWAGSSYTQITNRYADRVPIPVSEITDTIDKFGKCSSKATYVRNNHKVEAFNEDKNPQDMPLIASKYNSVGSKAWHTTNDTYMVAGTPGTYRTGTSVNCIIEEVEARSIFPYDSFGLSTGDIIYMSPFFGLRDGAYREHSNYAMDRFHQFEGYRQRDLDTRALLEPAARNFLVTPHLTVGWNWKPKRTEVCSLVKWREVEDVVRDEYAHNFRFTMKTLSTTFISETNEFNLNQIHLSQCVKEEARAIINRIYTTRYNSSHVRTGDIQTYLARGGFVVVFQPLLSNSLARLYLQELVRENTNHSPQKHPTRNTRSRRSVPVELRANRTITTTSSVEFAMLQFTYDHIQEHVNEMLARISSSWCQLQNRERALWSGLFPINPSALASTILDQRVKARILGDVISVSNCPELGSDTRIILQNSMRVSGSTTRCYSRPLISIVSLNGSGTVEGQLGTDNELIMSRDLLEPCVANHKRYFLFGHHYVYYEDYRYVREIAVHDVGMISTYVDLNLTLLKDREFMPLQVYTRDELRDTGLLDYSEIQRRNQMHSLRFYDIDKVVQYDSGTAIMQGMAQFFQGLGTAGQAVGHVVLGATGALLSTVHGFTTFLSNP
notes: also called VZV gB
B3: HAVCR1 expressed on cells (gD-GPI construct or full-length protein) (receptor)
chain: SVKVGGEAGPSVTLPCHYSGAVTSMCWNRGSCSLFTCQNGIVWTNGTHVTYRKDTRYKLLGDLSRRDVSLTIENTAVSDSGVYCCRVEHRGWFNDMKITVSLEIVPPKVTTTPIVTTVPTVTTVRTSTTVPTTTTVPMTTVPTTTVPTTMSIPTTTTVLTTMTVSTTTSVPTTTSIPTTTSVPVTTTVSTFVPPMPLPRQNHEPVATSPSSPQPAETHPTTLQGAIRREPTSSPLYSYTTDGNDTVTESSDGLWNNNQTQLFLEHSLLTANTTKGIYAGVCISVLVLLALLGVIIAKKYFFKKEVQQLSVSFSSLQIKALQNAVEKEVQAEDNIYIENSLYATD
notes: whole, on cells
B4: FLRT3 (in supernatants) (receptor)
chain: KSCPSVCRCDAGFIYCNDRFLTSIPTGIPEDATTLYLQNNQINNAGIPSDLKNLLKVERIYLYHNSLDEFPTNLPKYVKELHLQENNIRTITYDSLSKIPYLEELHLDDNSVSAVSIEEGAFRDSNYLRLLFLSRNHLSTIPWGLPRTIEELRLDDNRISTISSPSLQGLTSLKRLVLDGNLLNNHGLGDKVFFNLVNLTELSLVRNSLTAAPVNLPGTNLRKLYLQDNHINRVPPNAFSYLRQLYRLDMSNNNLSNLPQGIFDDLDNITQLILRNNPWYCGCKMKWVRDWLQSLPVKVNVRGLMCQAPEKVRGMAIKDLNAELFDCKDSGIVSTIQITTAIPNTVYPAQGQWPAPVTKQPDIKNPKLTKDHQTTGSPSRKTITITVKSVTSDTIHISWKLALPMTALRLSWLKLGHSPAFGSITETIVTGERSEYLVTALEPDSPYKVCMVPMETSNLYLFDETPVCIETETAPLRMYNPTTTLNREQEKEPYKNPNLP
B5: ICAM1 expressed on cells (gD-GPI construct or full-length protein) (receptor)
chain: QTSVSPSKVILPRGGSVLVTCSTSCDQPKLLGIETPLPKKELLLPGNNRKVYELSNVQEDSQPMCYSNCPDGQSTAKTFLTVYWTPERVELAPLPSWQPVGKNLTLRCQVEGGAPRANLTVVLLRGEKELKREPAVGEPAEVTTTVLVRRDHHGANFSCRTELDLRPQGLELFENTSAPYQLQTFVLPATPPQLVSPRVLEVDTQGTVVCSLDGLFPVSEAQVHLALGDQRLNPTVTYGNDSFSAKASVSVTAEDEGTQRLTCAVILGNQSQETLQTVTIYSFPAPNVILTKPEVSEGTEVTVKCEAHPRAKVTLNGVPAQPLGPRAQLLLKATPEDNGRSFSCSATLEVAGQLIHKNQTRELRVLYGPRLDERDCPGNWTWPENSQQTPMCQAWGNPLPELKCLKDGTFPLPIGESVTVTRDLEGTYLCRARSTQGEVTRKVTVNVLSPRYEIVIITVVAAAVIMGTAGLSTYLYNRQRKIKKYRLQQAQKGTPMKPNTQATPP
notes: whole, on cells

The target of test [1] is T1, HHV8 protein KCP expressed on cells …. Put plainly: cell-based immunofluorescence validation (FIG. 17): receptor in supernatants, KCP on cells.
Test [2] addresses T2, MUSK expressed on cells (gD-GPI …). Put plainly: cell-based immunofluorescence validation (FIG. 15): gB on beads or in supernatants, MUSK on cells.
In test [3] the target is B2. The test is described as follows: cell-based immunofluorescence validation (FIG. 16): gB on beads or in supernatants, HAVCR1 on cells.
Test [4] concerns the target T3, VZV protein gC, soluble (captured on …). Put plainly: cell-based immunofluorescence validation (FIGS. 14B and 22): soluble gC on cells with ICAM1.

Take B1: the binding result in test [1] was “binds”.
In the case of B2, the binding result in test [2] is given as “binds”.
Take B3: the binding result in test [3] is “binds”.
On to B4, for which, in test [1], the binding result is reported as “binds”.
With B5, in test [4], the binding result is reported as “binds”.
